Reference: article PMC3942423 (Nature chemical biology, 2009)

How the values were obtained:
[1] = substrate: OC[C@H]1O[C@H](O[C@H]2[C@H](O)[C@H](O)[C@@H](O)O[C@@H]2CO)[C@@H](O)[C@@H](O)[C@@H]1O; assay: mannobiose hydrolysis kinetics; format: biochemical, Bacteroides thetaiotaomicron; conditions: other: most active mannobiose substrate
[2] = substrate: OC[C@H]1O[C@H](O[C@@H]2[C@H](O)[C@@H](O)O[C@H](CO)[C@H]2O)[C@@H](O)[C@@H](O)[C@@H]1O; assay: purified protein, by the assay type; conditions: other: most active mannobiose substrate, pH 7.0, 37.0 °C
[3] = substrate: O=[N+]([O-])c1ccc(O[C@H]2O[C@H](CO)[C@@H](O)[C@H](O)[C@@H]2O)cc1; assay: 4NP-Man hydrolysis kinetics; format: biochemical, Bacteroides thetaiotaomicron; conditions: other: substrate 4NP-Man

B1: Bt3530 (Bacteroides thetaiotaomicron VPI-5482) (protein)
chain: MTPSVAQNTKYVNLFIGTSGDNGQVAPGAAAPFGMVCVCPDNDPRSHAGYDYAVTKVSGISVNRLSGVGCSGGGGNLRIRPVAPSQELHIKKSREKATPGYYSTAFTNGIKTELTATNAMAVERYKFPRSLSAALWIDFASTFEDVATCHYKRISETCIEGYVQAKNVCGHGCYKLYFSLNTSQPFQLEEQKETTACLTFGKKVRSVEVRIGLSALSSELASWECARWEKMDFEDVKSRTADQWEKQLSAIDVKGGKKDDRVIFYTSLYRTYLSPADVSSPDGAYLGTDGKVYISEDFRYYSNWSLWDTFRTKFPLLVLTEPAKMRDMATSLIHLYATGKKDWSTGFESTPTVRTEHAVILLLDAYRKGITNLDFRKGYAGMKQEMERLPMRSPDQKMESAYDLWAMAKIAEIIGEKADSEQYRQRSVSLFEETWKKEFMNVTPAFEVMKNNGLYQGTRWQYRWAAPQYIDKMIEWVGQDSLRLQLTYFFDHHLYNQGNEPDIHVPYLFNRLGAPEKTQQIVRSLMTEPMIHKYGGNSEFKTPYLGKAFKNAPEGYSPEMDEDDGTMSAWYVFGAMGFYPLLVGDEYYDLTSPLFDRVLLRLTNGNVLTIQTEGRKKKDAPIKSIHFNGKKIADYRISHNELIKGGELIYNYK
For B1, the kcat ([1]; enzyme Bt3530, pH 7.0) was 0.001 ± 8.33e-05 s⁻¹ and the kcat/Km ([1]; enzyme Bt3530, pH 7.0) was 1.58 M⁻¹ s⁻¹.

B2: Bt3773 (Bacteroides thetaiotaomicron VPI-5482) (protein)
chain: KQDYSKSEGLLQYVDPYIGSGFHGHVFVGTSVPYGMVQLGPNNIHKGWDWCSGYHYSDSILIGFSHTHLSGTGCTDLGDILIMPLNEIRTPRGNQDDIRDGYASKYSHDNEIARPEYYSLILDRYNIKAELTATDRVGFHRYTYPEGKPVSILIDLREGNGSNAYDSYIRKVDDYTVEGYRYVRGWSPSRKVYFVLKSDQKIEKFTAYDDNTPKLWDQLKVESVKSVLTFGNVKEVKIKVAISSVSCDNAAMNLQAELSHWDFDKVVKMSSDRWNKQLDKMTVESDDEAAKRVFYTAHYHTMIAPTLYCDVNGEYRGMNDMIYTDPKKANYTTLSLWDTYRALNPLMTIIQPEMVDNVINSMLSIYRQQDKLPIWPLMSGETNCMPGYSSVPVIADAYLKGFTGFDAEEALTAMKATATYEGQNGVPYVMAKGYIPADKIHEATSIAMEYAVDDWGIAAMAQKMGKTADYETFSKRAHYYKNYFDSSIHFIRPKLEDGSWRTPYDPARSIHGVGDFCEGNGWQYTFFAPQDPYGLISLFGGDKPFTSKLDSFFTNNDSMGEGASSDITGLIGQYAHGNEPSHHIAYLYTYAGEQWKTAEKVRFIMSDFYTDQPDGIIGNEDCGQMSAWYLLSAMGFYQVNPSDGVFAFGSPRFKKIEVKVRGGKVFTVEAPNNSKDNIYIQKVYLNGKPYHKSYITYDDIINGSTLKFEMGKKPAKNFGKASANRPIVLNK
B2 was tested, and the Km ([2]; enzyme Bt3773) was 2500 ± 370 µM, the kcat ([2]; enzyme Bt3773) was 0.0183 s⁻¹ and the kcat/Km ([2]; enzyme Bt3773) was 7.5 M⁻¹ s⁻¹.

B3: Bt3858 (Bacteroides thetaiotaomicron VPI-5482) (protein)
chain: HTDQTPTKDFVDYVNPYIGNISHLLVPTYPTVHLPNSMLRVYPERGDYTSDRVNGLPVVVTSHRGSSAFNLSPVQGEVSRPIVSYSYDLENITPYSYSVYLDEADIQVEYAPSHQAGIYHISFGTEGDNALVVNTKNGKLVAEEKGVSGYQVIDNTPTKIYLYLETSQLPLRKGVLADGKVDMESKEGSAIALYYGSEKNLNLRYGISFISAEQAKKNLQRDITTYDVKAVADAGRRIWNKTLGKIVIEGGSEDEKEIFYTSLYRTYERMINLSEDGKYYSAFDGKIHEDGGVPFYTDDWIWDTYRATHPLRILIEPQKELDMIRSYIRMAEQSDRRWMPTFPEVTGDSHRMNGNHAVAVIWDAYCKGLKDFDLEAAYEACKGAITEKTLLPWLRCPLTELDKFYQEKGFFPALNPGEEETCKAVHSFERRQAVAVMLGNCYDNWCLAQIARTLNKTDDYKKFMRMSYTYRNVYNAETGFFHPKNKDGKFIEPFDYRYSGGQGARGYYGENNGWIYRWDVQHNPADLIALMGGQASFIERLNQTFNEPLGRSKFDFYHQLPDHTGNVGQFSMANEPCLHIPYLYNYAGQPWMTQKRIRVLLNQWFRNDLMGVPGDEDGGGMTAFVVFSMMGFYPVTPGSPTYNIGSPVFQSAKMEVGDGHYFEIIAENYAPDHKYIQSATLNGTPWNKPWFSHADIQNGGRLVLQMGDKPNKKWGIASDAVPPSSESLPE
B3 gave a Km ([3]; enzyme Bt3858, pH 7.0) of 270 ± 65 µM, a kcat ([3]; enzyme Bt3858, pH 7.0) of 0.000417 ± 1.67e-05 s⁻¹ and a kcat/Km ([3]; enzyme Bt3858, pH 7.0) of 1.57 M⁻¹ s⁻¹. For the same protein, the Km ([2]; enzyme Bt3858) was 1400 ± 170 µM, the kcat ([2]; enzyme Bt3858) was 40 s⁻¹ and the kcat/Km ([2]; enzyme Bt3858) was 28300 M⁻¹ s⁻¹.

B4: Bt3965 (Bacteroides thetaiotaomicron VPI-5482) (protein)
chain: MAQTEKLTDYVNPFVGTDGYGNVYPGAQIPFGGIQISPDTDSRFYDAASGYKYNHLTLMGFSLTHLSGTGIPDLGDFLFIPGTGEMKLEPGTHEDPDQGYRSRYSHDKEWASPNYYAVELADYGVKAEMTSGVRSGMFRFTYPESDNAFIMIDMNHTLWQSCEWSNLRMINDSTITGYKLVKGWGPERHVYFTATFSKKLTGLRFVQDKKPVIYNTSRFRSSYEAWGKNLMACISFDTKAGEEVTVKTAISAVSTDGARNNMKELDGLTFNELRAKGEALWEKELGKYTLTADRKTKETFYTSAYHAALHPFIFQDSDGQFRGLDKNIEKAEGFTNYTVFSLWDTYRALHPWFNLVQQEVNADIANSMLAHYDKSVEKMLPIWSFYGNETWCMIGYHAVSVLADMIVKEVKGFDYERAYEAMKTTAMNSNYDCLPEYREMGYVPFDKEAESVSKTLEYAYDDYCIAQAAKKLGKEDDYHYFLNRALSYQTLIDPETKYMRGRDSKGDWRTPFTPVAYQGPGSVHGWGDITEGFTMQYTWYVPQDVQGYINEAGKELFRKRLDELFTVELPDDIPGAHDIQGRIGAYWHGNEPCHHVAYLYNYLKEPWKCQKWIRTIVDRFYGNTPDALSGNDDCGQMSAWYMFNCIGFYPVAPSSNIYNIGSPCAEAITVRMSNGKNIEMTADNWSPKNLYVKELYVNGKKYDKSYLTYDDIRDGVKLRFVMSGKPNYKRAVSDEAVPPSISLPEKTMKYKSSIGF
Work on B4 yielded a kcat ([3]; enzyme Bt3965, pH 7.0) of 0.233 ± 0.00667 s⁻¹, a kcat/Km ([3]; enzyme Bt3965, pH 7.0) of 233 M⁻¹ s⁻¹ and a kcat ([1]; enzyme Bt3965, pH 7.0) of 1.48 ± 0.113 s⁻¹. It also gave a kcat/Km ([1]; enzyme Bt3965, pH 7.0) of 183 M⁻¹ s⁻¹.

B5: Bt4073 (Bacteroides thetaiotaomicron VPI-5482) (protein)
chain: GVVTEDLIPTDYVNPFIGASTSVGAAGVYHGLGKTFPGATTPYGMVQVSPNTITGGDNSSGYSDEHKTIEGFAFTQMSGVGWFGDLGNFLVMPTTGELQKIAGKEDGSIKGYRSSYDKATETAKAGYYSVELTDYKIKVESSATPHCGILQFTFPSNEQSRIQIDLARRVGGTSTSQYVKVLDDYTIQGWMKCTPDGGGWGNGEGNSDYTVYYYAQFSKPLSNYGFWSADIPDEWVRKRDEVVSIPYLTRISQAPVIKDKKELEGKHLGFFTEFPTKEGEQVEMKVGISFVDMEGAANNFKQEIASKNFAQVKQEASDLWNKELSRIRISGGTDDEKTVFYTSLYHTMIDPRIYTDVDGRYIGGDKKVHEQDGTFTKRTIFSGWDVFRSQFPLQAMINPRLVSDALNSLITMADQSRREYYERWELLNSYSGCMIGNPALSVLADAYMKGIRTYDVEKAYQYAVNTSAKFGNDSLGYTPEPLSISYTLEYAYADWCVAQLAKALGKEEDAKRFYEKGQAYRNMFDAEKGWFRPRNADGSWKAWPENALTEEWYGCIESNAYQQGWFVPHDVPGMVELMGGKEEVIANLTNLFDHTPSDMLWNDYYNHANEPVHFVPFLFNQLDVPWYTQKWTRYICKNAYANKVEGIVGNEDVGQMSAWYILAASGIHPSCPGNTRMEITSPVFDKVEFNLDSKYHQGKVFTIIAHNNNTNNLYIQKALLNGKEYNKCYLDFAEIAAGGTLELFMGDKPNTEWGVLSNI
In the case of B5, the Km ([3]; enzyme Bt4073, pH 7.0) is reported as 1800 ± 210 µM, the kcat ([3]; enzyme Bt4073, pH 7.0) is reported as 0.0045 ± 0.000233 s⁻¹ and the kcat/Km ([3]; enzyme Bt4073, pH 7.0) is reported as 2.33 M⁻¹ s⁻¹. It also gave a Km ([1]; enzyme Bt4073, pH 7.0) of 270 ± 49 µM, a kcat ([1]; enzyme Bt4073, pH 7.0) of 183 ± 9.33 s⁻¹ and a kcat/Km ([1]; enzyme Bt4073, pH 7.0) of 683000 M⁻¹ s⁻¹.

B6: Bt1769 (Bacteroides thetaiotaomicron VPI-5482) (protein)
chain: CNGSLQTADRTPVDYVNPYIGNISHLLVPTFPTIQLPNSMLRVYPERADYTSELLKGLPLIVTNHRERSAFNFSPYQGEKLRPVITYNYDNEHITPYSFDVELDDNRMKAEYALSHQSAIYRITYEADKPAYLIVNSRNGSIHANENFISGRQQLNDNTNVYVYIEAQEKPISAGILENGTIETSKDNAEGANACAAWRFADGTTTVNLRYGISFISEEQAEKNLHRELKDYNIKALAEAGRQIWNETLGRIQVEGGTEDDKTVFYSSFYRTFERPICMSEGGRYFSAFDGKVHEDNGTPFYTDDWIWDTYRAAHPLRTLIDQQKEEDIIASYLRMAEQMGNMWMPTFPEVTGDTRRMNSNHAVATVADALAKGLKVDTAKAYEACRKGIEEKTLAPWSGAPAGWLDNFYRENGYIPALRVDEPENDPNVHPFEKRQPVAVTLGTSYDQWCLSRIAQALNKKEEAEYYLKCSYNYRNLYNKETAFFHPKDKEGQWIEPFDYRFPGGMGAREYYGENNGWVYRWDVPHNVADLISLMGGNEQFIANLDRTFTEPLGRSKYAFYAKLPDHTGNVGQFSMANEPSLHVPYLYNYAGQPWKTQKRIRQMLKTWFRNDLMGIPGDEDGGGMTSFVVFSSLGFYPVTPGLPAYTIGSPLFTDAKIRLSNGAVFEIEAKNASTDNKYIQSATLNGKEWNKSWFSHDDLMSGGKLVLVMGNKPNKTWASGAEDVPPSLEIK
B6 was tested, and the Km ([2]; enzyme Bt1769) was 1300 ± 140 µM, the kcat ([2]; enzyme Bt1769) was 63.3 s⁻¹ and the kcat/Km ([2]; enzyme Bt1769) was 48300 M⁻¹ s⁻¹.

B7: Bt1878 (Bacteroides thetaiotaomicron VPI-5482) (protein)
chain: ETKDYTQYVNTFIGAADNGHTFPGACYPFGMIQTSPVTGAVGWRYCSEYTYQDSLIWGFTQTHLNGTGCMDLGDILVMPVTGTRARAWDAYRSHFPKDKEAATPGYYTVELSDPQVKAELTASIHAALHRYTYHKADSASLLIDLQHGPAWREEQYHSQVNSCEVNWEDAQTLAGHVNNTVWVDQDYFFVMKFNRPVIDSLYLPMGETEKGKRIIATFDLKPGDELMMKVALSTTSVEGAKKNLQAEIPDWNFDGVKLAAHDEWNSYLSRMDVEGTDDEKTNFYTCFYHALIQPNQISDVDGMYRNAADSIVKAGTGTFYSTFSLWDTYRAAHPFYTLMVPERVDDFVNSLIEQGEVQGFLPIWALWGKENFCMIGNHGVSVIAEAYRKGFRGFDAERAFNMVKKTQTVSHPLKSDWEVYTKYGYFPTDLTKAESVSSTLESVYDDYAAADMARRMGKEEDAAYFAKRADYYKNLFDSQTNFMRPRKADGTWKSPFNPSDVGHAESTGGDYTEGNAWQYTWHVQHDVPGLIALFGGEEPFLNKLDSLFTVKLETTQADVTGLIGQYAHGNEPSHHVTYLYALAGRPERTQELIREIFDTQYKNKPDGLCGNDDCGQMSAWYMFSAMGFYPVDPVSGDYVFGAPQLPKIVLHLADGKTFTVIAENLSKEHKYVDSITLNGEPYTKNTISHEDILKGGTLVYKMK
B7 was tested, and the Km ([3]; enzyme Bt1878, pH 7.0) was 900 ± 130 µM, the kcat ([3]; enzyme Bt1878, pH 7.0) was 0.00133 ± 8.33e-05 s⁻¹ and the kcat/Km ([3]; enzyme Bt1878, pH 7.0) was 1.48 M⁻¹ s⁻¹. For the same protein, the Km ([2]; enzyme Bt1878) was 2000 ± 380 µM, the kcat ([2]; enzyme Bt1878) was 0.283 s⁻¹ and the kcat/Km ([2]; enzyme Bt1878) was 140 M⁻¹ s⁻¹.
